According to patent publication US20260234224A1 (VANDERBILT UNIVERSITY, published 2026):

Target: T1, SARS-CoV-2 RBD (SARS-CoV-2, UniProt P0DTC2 319-541)
T1 construct: domain: RBD
Assay: ELISA on recombinant spike subdomains

B1: 71281-31 (antibody, V domains shown)
VH: QVQLVESGGGVVQPGRSLRLSCAASGFTFSRYGMHWVRQAPGKGLEWVAFISYDGDNKYYADSVKGRFTISRDNSKNTLYLQMDSLRTEDTAVYYCAKDPTARLGYCRGGSCYLADYWGQGTLVTVSS
VL: SYVLTQPPSVSVAPAQTARITCGGNNIESKSVHWYQQKPGQAPVLVVYENSDRPSGIPERFSGSNSGNMATLTISRVEAGDEADYYCQVWESSSDHVIFGGGTKLTVL
  binding result: binds
